# From patent publication US20260000736A1, “PURIFIED LACTOFERRIN COMPOSITIONS AND METHODS OF USE” (Lactea Therapeutics LLC, priority 2023, published 2026)
# Several values for one entry are separate records, joined by “and”; a condition that tells them apart may be missing. Equal values may be shown once.
# B1: Lactea-Lf: bovine lactoferrin purified from raw untreated milk by cation exchange chromatography and filtration according to Example 1 (protein)
# chain: APRKNVRWCTISQPEWFKCRRWQWRMKKLGAPSITCVRRAFALECIRAIAEKKADAVTLDGGMVFEAGRDPYKLRPVAAEIYGTKESPQTHYYAVAVVKKGSNFQLDQLQGRKSCHTGLGRSAGWVIPMGILRPYLSWTESLEPLQGAVAKFFSASCVPCIDRQAYPNLCQLCKGEGENQCACSSREPYFGYSGAFKCLQDGAGDVAFVKETTVFENLPEKADRDQYELLCLNNSRAPVDAFKECHLAQVPSHAVVARSVDGKEDLIWKLLSKAQEKFGKNKSRSFQLFGSPPGQRDLLFKDSALGFLRIPSKVDSALYLGSRYLTTLKNLRETAEEVKARYTRVVWCAVGPEEQKKCQQWSQQSGQNVTCATASTTDDCIVLVLKGEADALNLDGGYIYTAGKCGLVPVLAENRKTSKYSSLDCVLRPTEGYLAVAVVKKANEGLTWNSLKDKKSCHTAVDRTAGWNIPMGLIVNQTGSCAFDEFFSQSCAPGRDPKSRLCALCAGDDQGLDKCVPNSKEKYYGYTGAFRCLAEDVGDVAFVKNDTVWENTNGESTADWAKNLNREDFRLLCLDGTRKPVTEAQSCHLAVAPNHAVVSRSDRAAHVKQVLLHQQALFGKNGKNCPDKFCLFKSETKNLLFNDNTECLAKLGGRPTYEEYLGTEYVTAIANLKKCSTSPLLEACAFLTR
# Assay: Differential Scanning Calorimetry (DSC) of apolactoferrin and hololactoferrin forms
# Format: physicochemical
# Details: 10 mg/mL
# Description: Di[…] Calorimetry (DSC) was used to assess the hololactoferrin and apolactoferrin forms through monitoring unfolding temperatures of lactoferrin samples using a nanoDSC (TA Instruments, Lindon, UT) according to standard DSC protocols known to those of skill in the art (e.g., see Hinz et al “M[…] […] OF […] ON […] DI[…] CALORIMETRY”; herein incorporated by reference for all purposes.
# API-E2 Lactoferrin (10 mg/mL), produced as described herein, was assessed by DSC. […] The lack of other peaks indicates the lack of contaminants and impurities and can assess API-E2 as ˜100%. […] Additionally, the lack of other peaks also indicated the purity of API-E2 Lactoferrin. […] The API-E2 hololactoferrin peak has a Tm of 88.38+/−0.8 C and a delta H of 632.7+/−7.2 kJ/mol. The hololactoferrin natively accounted for on average 8.74+/−1.39% of the total API-E2 lactoferrin with apolactoferrin accounting for the rest in the samples tested. However, the hololactoferrin percentage can be naturally variable. The API-E2 was calculated by this technique to contain virtually 100% pure lactoferrin.
# The assay was also performed with heat-treated API-E2 Lactoferrin. API-E2 Lactoferrin was heated across a range of 50-100° C.
# Lab-grade standard lactoferrin and a commercially available supplement-grade lactoferrin were also assessed by DSC under the conditions used to assess API-E2 above.
molecule,measurement,setting,value
B1,"% of Total, Apolactoferrin",,91.26 +/− 1.39%
same,"% of Total, Hololactoferrin",listed as API-E2,8.74+/−1.39%
same,"Delta H, Apolactoferrin peak",listed as API-E2,111.4 ± 2.2 kcal/mol
same,"Delta H, Hololactoferrin peak",listed as API-E2,151.2 ± 1.72 kcal/mol
same,"Tm, Apolactoferrin peak",listed as API-E2,60.2+/−0.8 C and 60.2 +/− .8 C
same,"Tm, Hololactoferrin peak",listed as API-E2,88.38+/−0.8 C and 88.38 +/− .8 C
